Common to all, as to test: two-hybrid
In one assay the target is DBDlexA-Cdc42(C188S) (S. cerevisiae, UniProt P19073 1-191, C188S).
Assay [1] deals with DBDlexA-Cdc42(D118A/C188S) (S. cerevisiae, UniProt P19073 1-191, D118A | C188S).
For assay [2], the target named is DBDlexA-Cdc42(Q61L/C188S) (S. cerevisiae, UniProt P19073 1-191, Q61L | C188S).
Chain of DBDlexA-Cdc42(Q61L/C188S) (P19073 whole entry Q61L/C188S): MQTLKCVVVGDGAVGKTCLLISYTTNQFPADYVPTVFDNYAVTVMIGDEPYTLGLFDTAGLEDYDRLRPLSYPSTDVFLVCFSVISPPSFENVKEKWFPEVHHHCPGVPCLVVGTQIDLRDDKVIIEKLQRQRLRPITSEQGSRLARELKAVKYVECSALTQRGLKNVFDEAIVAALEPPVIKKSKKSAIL

Chain of DBDlexA-Cdc42(D118A/C188S) (P19073 whole entry D118A/C188S): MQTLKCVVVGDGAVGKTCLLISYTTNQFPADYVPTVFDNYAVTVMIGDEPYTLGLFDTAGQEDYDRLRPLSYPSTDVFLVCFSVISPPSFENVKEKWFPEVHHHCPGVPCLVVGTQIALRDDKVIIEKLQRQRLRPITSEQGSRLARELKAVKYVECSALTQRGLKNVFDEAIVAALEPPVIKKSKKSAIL
Chain of DBDlexA-Cdc42(C188S) (P19073 whole entry C188S): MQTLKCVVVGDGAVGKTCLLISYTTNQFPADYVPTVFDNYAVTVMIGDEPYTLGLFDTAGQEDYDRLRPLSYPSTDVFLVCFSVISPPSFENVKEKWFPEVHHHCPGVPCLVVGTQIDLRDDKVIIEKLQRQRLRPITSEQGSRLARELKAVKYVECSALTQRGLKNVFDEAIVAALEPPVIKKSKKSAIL

B1: ADGal4-BOI1(731-980) (domain or fragment, S. cerevisiae)
chain: EFKRSPSELTQKSTKSILPRSNAKKQQTSAFTEGIRSITAKESMQTADCSGWMSKKGTGAMGTWKQRFFTLHGTRLSYFTNTNDEKERGLIDITAHRVLPASDDDRLISLYAASLGKGKYCFKLVPPQPGSKKGLTFTEPRVHYFAVENKSEMKAWLSAIIKATIDIDTSVPVISSYATPTIPLSKAQTLLEEARLQTQLRDAEEEEGRDQFGWDDTQNKRNSNYPIEQDQFETSDYLESSAFEYPGGRL
Regarding B1, the beta-galactosidase activity with DBDlexA-Cdc42(C188S) is 380; in assay [1], under 0.02; in assay [2] it was 230.

B2: ADGal4-BOI1(375-557) (domain or fragment, S. cerevisiae)
chain: ILDMTEVPNLFADKDIFESPGRAPKPPSYPSPVQPPQSPSFNNRYTNNNARFPPQTTYPPKNKNPTVYSNGLIPNSSTSSDNSTGKFKFPAMNGHDSNSRKTTLTSATIPSINTVNTDESLPAISNISSNATSHHPNRNSVVYNNHKRTESGSSFVDLFNRISMLSPVKSSFDEEETKQPSKA
For B2, in assay [1], the beta-galactosidase activity is under 0.02.

B3: ADGal4-BOI1(375-980) (domain or fragment, S. cerevisiae)
chain: ILDMTEVPNLFADKDIFESPGRAPKPPSYPSPVQPPQSPSFNNRYTNNNARFPPQTTYPPKNKNPTVYSNGLIPNSSTSSDNSTGKFKFPAMNGHDSNSRKTTLTSATIPSINTVNTDESLPAISNISSNATSHHPNRNSVVYNNHKRTESGSSFVDLFNRISMLSPVKSSFDEEETKQPSKASRAVFDSARRKSSYGHSRDASLSEMKKHRRNSSILSFFSSKSQSNPTSPTKQTFTIDPAKMTSHSRSQSNSYSHARSQSYSHSRKHSLVTSPLKTSLSPINSKSNIALAHSETPTSSNNKEAVSQPSEGKHKHKHKHKSKHKHKNSSSKDGSSEEKSKKKLFSSTKESFVGSKEFKRSPSELTQKSTKSILPRSNAKKQQTSAFTEGIRSITAKESMQTADCSGWMSKKGTGAMGTWKQRFFTLHGTRLSYFTNTNDEKERGLIDITAHRVLPASDDDRLISLYAASLGKGKYCFKLVPPQPGSKKGLTFTEPRVHYFAVENKSEMKAWLSAIIKATIDIDTSVPVISSYATPTIPLSKAQTLLEEARLQTQLRDAEEEEGRDQFGWDDTQNKRNSNYPIEQDQFETSDYLESSAFEYPGGRL
With B3, the beta-galactosidase activity is under 0.02 in assay [1] and 400 in assay [2].

The record behind these values is paper PMC2120828 (The Journal of Cell Biology, 1996).
